Reference: patent US6120991

Experiments:
[1] = target: integrin α3 β1 (human) (UniProt P26006)
[2] = target: integrin α6 β4 (human) (UniProt P23229)

% adherent HFF control cells on epiligrin-ECM^t at 37° C. (time course) (% adherent cells) [1]: 57 | % adherent 51Cr-labeled HFK cells on epiligrin-ECM^t at 4° C. (time course) (% adherent cells) [2]: 28
Substance: epiligrin-ECM^t (epiligrin left on the substratum after HFK were detached from their ECM with trypsin) (ligand)
